Results as given in US20210079115A1 (Janssen / Centocor, published 2021).

Molecular target: full length human PSMA on cells (LNCaP, C4-2B, LNCaP AR, 22RV1 prostate tumor cells; human tissue) (human, UniProt Q04609 1-750)
Test: cell-based or functional assay

Chain of full length human PSMA on cells (LNCaP, C4-2B, LNCaP AR, 22RV1 prostate tumor cells; human tissue) (Q04609 whole entry): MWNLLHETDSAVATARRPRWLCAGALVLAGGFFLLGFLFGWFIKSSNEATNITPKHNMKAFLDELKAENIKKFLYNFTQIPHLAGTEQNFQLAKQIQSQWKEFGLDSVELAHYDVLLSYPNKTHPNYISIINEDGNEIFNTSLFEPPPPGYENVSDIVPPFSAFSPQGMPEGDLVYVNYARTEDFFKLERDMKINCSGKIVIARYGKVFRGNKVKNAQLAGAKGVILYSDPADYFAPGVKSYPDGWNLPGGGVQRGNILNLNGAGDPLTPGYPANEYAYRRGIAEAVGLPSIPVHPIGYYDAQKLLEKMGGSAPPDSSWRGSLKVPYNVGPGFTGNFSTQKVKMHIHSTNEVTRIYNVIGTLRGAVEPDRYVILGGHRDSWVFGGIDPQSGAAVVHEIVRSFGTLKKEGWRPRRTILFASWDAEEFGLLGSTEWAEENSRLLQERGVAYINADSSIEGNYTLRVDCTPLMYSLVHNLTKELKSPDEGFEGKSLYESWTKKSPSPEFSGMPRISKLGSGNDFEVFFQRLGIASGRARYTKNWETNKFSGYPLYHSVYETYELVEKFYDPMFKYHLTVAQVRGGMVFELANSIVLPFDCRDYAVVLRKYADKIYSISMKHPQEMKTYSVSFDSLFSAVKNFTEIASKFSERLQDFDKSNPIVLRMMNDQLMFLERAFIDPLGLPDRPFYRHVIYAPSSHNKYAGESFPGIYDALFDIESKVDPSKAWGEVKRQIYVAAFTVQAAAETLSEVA

B1: PS3B27 PSMA×CD3 bispecific antibody (PSMB127 × CD3B219) (bispecific antibody, human IgG4 S228P, kappa, lambda, F234A L235A)
heavy 1: not shown
light 1: not shown
heavy 2: EVQLVESGGGLVQPGGSLRLSCAASGFTFNTYAMNWVRQAPGKGLEWVARIRSKYNNYATYYAASVKGRFTISRDDSKNSLYLQMNSLKTEDTAVYYCARHGNFGNSYVSWFAYWGQGTLVTVSSASTKGPSVFPLAPCSRSTSESTAALGCLVKDYFPEPVTVSWNSGALTSGVHTFPAVLQSSGLYSLSSVVTVPSSSLGTKTYTCNVDHKPSNTKVDKRVESKYGPPCPPCPAPEAAGGPSVFLFPPKPKDTLMISRTPEVTCVVVDVSQEDPEVQFNWYVDGVEVHNAKTKPREEQFNSTYRVVSVLTVLHQDWLNGKEYKCKVSNKGLPSSIEKTISKAKGQPREPQVYTLPPSQEEMTKNQVSLTCLVKGFYPSDIAVEWESNGQPENNYKTTPPVLDSDGSFLLYSKLTVDKSRWQEGNVFSCSVMHEALHNHYTQKSLSLSLGK
light 2: QTVVTQEPSLTVSPGGTVTLTCRSSTGAVTTSNYANWVQQKPGQAPRGLIGGTNKRAPGTPARFSGSLLGGKAALTLSGVQPEDEAEYYCALWYSNLWVFGGGTKLTVLGQPKAAPSVTLFPPSSEELQANKATLVCLISDFYPGAVTVAWKADSSPVKAGVETTTPSKQSNNKYAASSYLSLTPEQWKSHRSYSCQVTHEGSTVEKTVAPTECS
  T cell activation (CD25 expression) median EC50, C4-2B cells co-cultured with donor T cells, 48 hours: 0.06 nM
  T cell dependent cytotoxicity median EC50, C4-2B cells, E:T 3:1, 72 hours: 0.08 nM
